Columns and labels:
[1] = target: Xenopus laevis Bonsai CENP-E (Xenopus laevis); assay: single-molecule fluorescence brightness and photobleaching steps
[2] = target: microtubules (tubulin purified from cow brains) (cow) (UniProt Q6B856); assay: co-sedimentation

| stoichiometry N [1] | Kd [2] [nM] | Substance |
| --- | --- | --- |
| 2 | – | Xenopus laevis Bonsai CENP-E |
| – | 24 | Xenopus laevis full-length CENP-E (natural protein) |
